Laboratory results as given in publication PMC9518701, “Preclinical characterization of amubarvimab and romlusevimab, a pair of non-competing neutralizing monoclonal antibody cocktail, against SARS-CoV-2” (Frontiers in Immunology, 2022).

Target: T1, SARS-CoV-2 spike protein receptor binding domain (RBD) (SARS-CoV-2, wild type (Wuhan-Hu-1 …, UniProt P0DTC2))
T1 construct: also called SARS-CoV-2 RBD
Experiment: SPR
Settings: both partners purified

| Binder | Kd | binding result |
| --- | --- | --- |
| romlusevimab (BRII-198) (antibody, V domains shown) VH: QVQLVQSGSELKKPGASVKVSCKASGYTFTTYVMNWVRQAPGQGLEWMGWINTNTGNPTYAQGFTGRFVFSLDTSVSTASLQISSLKAEDTAVYYCSSEITTLGGMDVWGQGTTVTVSS VL: SYVLTQPPSVSVAPGKTARITCGGNNIGSKSVHWYQQKPGQAPVLVIYYDSDRPSGIPERFSGSNSGNTATLTISGVEAGDEADYYCQVWDSISDHRVFGGGTKLTVL | 0.56 nM | – |
| P2B-1G5 (precursor of romlusevimab) (antibody, V domains shown) VH: QVQLVQSGSELKKPGASVKVSCKASGYTFTTYVMNWVRQAPGQGLEWMGWINTNTGNPTYAQGFTGRFVFSLDTSVSTASLQISSLKAEDTAVYYCSCEITTLGGMDVWGQGTTVTVSS VL: SYVLTQPPSVSVAPGKTARITCGGNNIGSKSVHWYQQKPGQAPVLVIYYDSDRPSGIPERFSGSNSGNTATLTISGVEAGDEADYYCQVWDSISDHRVFGGGTKLTVL | – | binds |
